The record followed here is patent US20070243194A1.

Test [1] addresses hIGF-1R-Fc mutant SD008 (S258F) (human) (UniProt P08069). Briefly: SPR, Fab on receptor-Fc held on M13-C06 chip. Background: Surface plasmon resonance follows binding to a sensor surface in real time, without labels.
Test [2] deals with hIGF-1R-Fc mutant SD019 (A739W_I741F) (human) (UniProt P08069). Briefly: SPR, Fab on receptor-Fc held on M13-C06 chip.
Chain of hIGF-1R-Fc mutant SD019 (A739W_I741F) (human) (P08069 31-933, stated change not applied): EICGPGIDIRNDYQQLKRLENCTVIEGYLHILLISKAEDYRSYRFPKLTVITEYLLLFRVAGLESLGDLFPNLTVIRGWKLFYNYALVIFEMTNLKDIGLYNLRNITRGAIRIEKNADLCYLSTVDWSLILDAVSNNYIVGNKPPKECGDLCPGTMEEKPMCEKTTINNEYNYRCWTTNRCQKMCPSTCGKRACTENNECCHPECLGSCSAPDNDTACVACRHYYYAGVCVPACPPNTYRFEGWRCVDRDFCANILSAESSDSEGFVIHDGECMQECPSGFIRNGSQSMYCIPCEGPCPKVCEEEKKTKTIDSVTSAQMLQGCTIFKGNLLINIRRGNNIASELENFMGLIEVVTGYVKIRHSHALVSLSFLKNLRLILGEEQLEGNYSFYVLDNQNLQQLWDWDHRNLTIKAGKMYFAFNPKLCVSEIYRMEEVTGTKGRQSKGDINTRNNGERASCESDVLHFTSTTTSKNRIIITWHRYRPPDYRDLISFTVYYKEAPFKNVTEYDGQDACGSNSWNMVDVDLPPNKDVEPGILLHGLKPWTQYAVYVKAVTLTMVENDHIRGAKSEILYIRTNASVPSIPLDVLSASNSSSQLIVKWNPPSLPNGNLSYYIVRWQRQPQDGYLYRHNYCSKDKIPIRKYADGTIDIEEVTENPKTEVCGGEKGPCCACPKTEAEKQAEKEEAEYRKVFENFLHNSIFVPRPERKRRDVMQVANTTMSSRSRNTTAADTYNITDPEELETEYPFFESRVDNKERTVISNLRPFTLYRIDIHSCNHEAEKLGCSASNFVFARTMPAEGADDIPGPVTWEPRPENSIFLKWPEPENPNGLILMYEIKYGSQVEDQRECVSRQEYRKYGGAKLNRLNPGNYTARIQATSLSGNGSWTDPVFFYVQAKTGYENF

Chain of hIGF-1R-Fc mutant SD008 (S258F) (human) (P08069 31-933, stated change not applied): as above

B1: M13-C06 Fab (Fab, V domains shown)
VH: EVQLLESGGGLVQPGGSLRLSCAASGFTFSIYRMQWVRQAPGKGLEWVSGISPSGGTTWYADSVKGRFTISRDNSKNTLYLQMNSLRAEDTAVYYCARWSGGSGYAFDIWGQGTMVTVSS
VL: DIQMTQSPLSLSASVGDRVTITCQASRDIRNYLNWYQQKPGKAPKLLIYDASSLQTGVPSRFGGSGSGTDFSFTIGSLQPEDIATYYCQQFDSLPHTFGQGTKLEIK
For B1, the Biacore Relative RUmax in test [1] amounted to 1.5; in test [2] it was 1.9.
